Usually stoichiometry N stands for a count of units in the complex or per binding partner.

Where a chain is given by its changes, count along the chain named. In names and notes the source's numbering stands.

The values that follow come from PMC6159516 (Nucleic Acids Research, 2018).

In data set [1] the target is FANCJ-R707C with a C-terminal FLAG tag (human) (UniProt Q9BX63).
In data set [2] the target is T1, FANCJ-wild type (WT) with a C-terminal FLAG tag (human), Q9BX63.
T1 chain: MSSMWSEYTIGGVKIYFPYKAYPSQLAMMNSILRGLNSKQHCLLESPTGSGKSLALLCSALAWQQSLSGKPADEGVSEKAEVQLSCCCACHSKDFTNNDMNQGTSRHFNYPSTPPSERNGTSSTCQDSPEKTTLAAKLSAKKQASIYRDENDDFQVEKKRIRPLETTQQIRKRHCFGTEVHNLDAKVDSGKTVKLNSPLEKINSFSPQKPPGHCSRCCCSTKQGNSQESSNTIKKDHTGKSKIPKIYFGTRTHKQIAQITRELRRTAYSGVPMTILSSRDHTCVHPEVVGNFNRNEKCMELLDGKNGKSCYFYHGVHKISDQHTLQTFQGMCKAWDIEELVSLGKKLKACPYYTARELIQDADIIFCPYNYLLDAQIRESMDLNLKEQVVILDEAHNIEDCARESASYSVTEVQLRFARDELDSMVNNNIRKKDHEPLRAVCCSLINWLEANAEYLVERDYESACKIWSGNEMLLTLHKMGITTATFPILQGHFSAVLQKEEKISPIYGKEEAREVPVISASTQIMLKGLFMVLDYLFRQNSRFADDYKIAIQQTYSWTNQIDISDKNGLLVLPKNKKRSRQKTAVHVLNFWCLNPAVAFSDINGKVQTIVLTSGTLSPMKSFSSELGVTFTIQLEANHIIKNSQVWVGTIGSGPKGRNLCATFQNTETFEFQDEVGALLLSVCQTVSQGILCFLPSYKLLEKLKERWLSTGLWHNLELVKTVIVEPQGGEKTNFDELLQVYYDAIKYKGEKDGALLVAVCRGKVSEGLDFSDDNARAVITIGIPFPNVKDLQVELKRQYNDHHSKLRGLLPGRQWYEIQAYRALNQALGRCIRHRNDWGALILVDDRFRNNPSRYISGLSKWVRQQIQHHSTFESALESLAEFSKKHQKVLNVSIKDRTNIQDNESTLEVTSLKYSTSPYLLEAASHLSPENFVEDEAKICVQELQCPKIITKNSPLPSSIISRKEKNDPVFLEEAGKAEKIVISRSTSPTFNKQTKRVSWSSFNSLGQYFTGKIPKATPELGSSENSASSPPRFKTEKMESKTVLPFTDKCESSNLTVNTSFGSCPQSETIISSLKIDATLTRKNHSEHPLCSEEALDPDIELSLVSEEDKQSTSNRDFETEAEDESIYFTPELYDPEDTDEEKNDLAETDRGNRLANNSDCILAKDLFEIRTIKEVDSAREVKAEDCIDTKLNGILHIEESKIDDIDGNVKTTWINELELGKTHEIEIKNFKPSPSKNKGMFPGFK
Nature of the data set: SEC; purified recombinant FANCJ applied to a Superdex-200 column on an AKTA FPLC, UV detection, calibrated with molecular mass markers; dimer and monomer peaks. The following applies: remark: other sources report otherwise. Background: SEC sorts molecules by how far they enter the pores of the column.

Data set [3] deals with the molecule itself. The data set is described as above.
The next data set has as its target T2, FANCJ-WT (Homo sapiens, UniProt Q9BX63 1-1249).
T2 sequence: T1 chain
The experiment in a line: EMSA; 5 mM Mg2+, no ATP; EMSA: 40 mM Tris-HCl pH 7.4, 25 mM KCl, 5 mM MgCl2, 2 mM DTT, 2% glycerol, 100 ng/ul BSA, no ATP, 0.5 nM DNA, 24 C 30 min; native 5% PAGE in 1x TBE at 4 C. (In general: In EMSA bound probe runs differently from free probe, usually more slowly.)

In data set [1], RPA (complex) showed a percent of 34 bp forked duplex DNA substrate (0.5 nM) unwound by FANCJ-R707C (20 nM) with increasing RPA, up to 8 nM, 30°C, 15 min (stimulation of helicase activity by RPA) of 45%.

B1: FANCJ-wild type (WT) with a C-terminal FLAG tag, Q9BX63 1-1249 (enzyme)
chain: T1 chain
As for B1, in data set [2], the stoichiometry N came to 2.

B2: FANCJ-H396D with a C-terminal FLAG tag (enzyme, human, UniProt Q9BX63 1-1249, looked up)
chain: T1 chain with H396D
In the case of B2, the “stoichiometry N” value in data set [3] amounted to 2.
Take TTTTTTTTTTTTTTTTTTTTTTCCCAGTAAAACGACGGCCAGTGC (ssDNA) [single-stranded 45-mer (DC26)]: the binding result with FANCJ-WT is “binds”.
